Measurements reported in the supplement of paper PMC10567573.
± gives the standard deviation.

Experiment: protein stability index of a GFP-peptide fusion (GPS, HEK-293T) (PSI 1-6); higher = more stable
Conditions: c terminus: a fixed tail appended
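Note: 24-mer peptide tiles fused after GFP, lentivirally expressed, FACS-sorted into six equal bins by GFP/DsRed ratio, decoded by Illumina sequencing, PSI is the read-weighted mean bin number.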

| Sequence | protein stability index (treatment: DMSO) | protein stability index (treatment: MLN4924 1 uM, 8 h) |
| --- | --- | --- |
| QIMKEGKATASEAVDCKWYIRAPP [NETO1] | 3.24 ± 0.086 | 3.24 ± 0.2 |
| MELGGHWDMNSAPRLVSETAERKQ [MFSD9] | 4.98 ± 0.11 | 4.98 ± 0.2 |
| HVNFSHLTTKDYMEMYNVIMTVKE [SLC6A17] | 2.41 ± 0.32 | 2.44 ± 0.52 |
| IMNFIDIVAIIPYFITLGTEIAEQ [KCNA1] | 3.2 ± 0.41 | 2.89 ± 0.15 |
| QGDLASLRAELQGHHAEKLPAGAG [TNFSF13B] | 4.72 ± 0.2 | 4.76 ± 0.18 |
| DTAEVYAAGKAEVVLGNIIKKKGW [KCNAB2] | 3.71 ± 0.21 | 3.86 ± 0.11 |
| ELLLFAVGFIMAGTPMALIVISYI [OR3A1] | 2.56 ± 0.033 | 3.09 ± 0.28 |
| TFDAITTIRGEVMFFKDRFYMRTN [MMP1] | 2.25 ± 0.41 | 2.07 ± 0.19 |
| FCQTDQTCICYLCMFQEHKNHSTV [TRIM29] | 2.2 ± 0.085 | 2.66 ± 0.32 |
| FHELQMQVTASDSGDPPLSSNVSL [PCDHGA10] | 2.93 ± 0.49 | 3.38 ± 0.54 |
| SPAEDFVLVAETTMARIRRVYVSG [APMAP] | 2.22 ± 0.29 | 2.05 ± 0.42 |
| LLGFLRIRVRGQRASRLQAPVLVA [LPCAT4] | 2.37 ± 0.52 | 2.12 ± 0.29 |
| QHLKSKALRERWLLEGTPSSASEG [PALM] | 4.25 ± 0.13 | 4.33 ± 0.2 |
| PQAFPMSRLWDSRLRHYLGSRYDA [DNAAF3] | 2.2 ± 0.47 | 2.51 ± 0.35 |
| ACGLGGGYGGGFSSSSSFGSGFGG [KRT16] | 2.17 ± 0.27 | 2.29 ± 0.25 |
| EGAVKMGMPSSLAHRIAAQTLLGT [PYCR3] | 3.08 ± 0.53 | 3.39 ± 0.17 |
| VPHWINSNTLGFGTEQAPYGMQTQ [ETS2] | 2.58 ± 0.41 | 2.88 ± 0.22 |
| MKSYSFLREAVPGILRARRGEGIQ [SOAT2] | 2.54 ± 0.2 | 2.77 ± 0.39 |
| CKRMDLVCQRMLNQGFLKVERYHN [FBXO28] | 2.38 ± 0.29 | 2.1 ± 0.16 |
| SFSTAIGRTCITDLQLTVGGAQAS [MFSD9] | 2.5 ± 0.33 | 2.34 ± 0.3 |
| PGEVVPSGESGLRRRGSDPASGEV [TMEM40] | 5.52 ± 0.32 | 5.43 ± 0.23 |
| NGLTLLILGVIGLFTIPLLYRQHQ [RTN2] | 3.39 ± 0.37 | 2.93 ± 0.71 |

| Sequence | protein stability index (treatment: DMSO) | protein stability index (treatment: MLN4924 1 uM, 8 h) |
| --- | --- | --- |
| DYPVQVAPLSNGLCCAFSTDGSVL [WSB1] | 2.66 ± 0.27 | 2.96 ± 0.32 |
| WLYYYAYKDFLWFFSKRFKSAAML [SOAT1] | 2.15 ± 0.34 | 2.29 ± 0.44 |
| FSINSRLASSLGNLNAATDDPENK [CDC14A] | 5.08 ± 0.26 | 5.1 ± 0.39 |
| REDSKEAEKSGEATDGARPQALPE [CHGA] | 5.64 ± 0.066 | 5.64 ± 0.17 |
| ELGGKNPAIIFEDANLDECIPATV [ALDH8A1] | 4.54 ± 0.28 | 4.72 ± 0.27 |
| SIQKLSNESRYMIYEFWENSSVWN [NECAB1] | 2.15 ± 0.45 | 2.01 ± 0.3 |
| DCAGSPQKPLCASDGRTFLSRCEF [SMOC2] | 3.05 ± 0.48 | 3.27 ± 0.36 |
| LEAELLQIEERHQEKKRKFLESTD [SMARCE1] | 4.89 ± 0.69 | 5.04 ± 0.24 |
| PGPKGDPGEKSHWGEGLHQLREAL [EMID1] | 3.32 ± 0.13 | 3.46 ± 0.52 |
| FKHPVIGVHVRRTDKVGTEAAFHP [FUT8] | 2.98 ± 0.31 | 3.13 ± 0.23 |
| MPSETLWEIAKAEVEKRGINGSEG [DYNC2LI1] | 4.88 ± 0.15 | 5.1 ± 0.1 |
| QFIANLDQLNDGQDFAKDLLKTLY [PSD2] | 2.21 ± 0.43 | 2.42 ± 0.28 |
| GGGEGKAMYIDTEGTFRPERLLAV [RAD51] | 2.69 ± 0.32 | 2.9 ± 0.37 |
| VLLGWTLHYFPFFLMGRVLYFHHY [POMT2] | 2.96 ± 0.29 | 2.91 ± 0.42 |
| GTLDNSKSMKPYNYCSAYESFYES [NEUROD6] | 3.02 ± 0.41 | 3.12 ± 0.35 |
| QVEVDAQQCMLEILDTAGTEQFTA [RAP1B] | 4.54 ± 0.12 | 4.59 ± 0.16 |
| TLFKKIQALQKEKETLAVNYEKEE [CCDC6] | 3.52 ± 0.27 | 3.35 ± 0.086 |
| ELSEEGAEGRVVGRKDITSILRAP [MOSPD3] | 4.82 ± 0.11 | 4.78 ± 0.18 |
| LHDRGAQVIHPQEFRRWRDTGVAF [DNAAF3] | 2.83 ± 0.2 | 2.99 ± 0.38 |
| GCSAVLSGGSSSSFRAGSKGLSGG [KRT71] | 3.45 ± 0.14 | 3.48 ± 0.2 |
| LELDDNLDTERPVQKRARSGPQPR [TRIB3] | 4.9 ± 0.38 | 5.11 ± 0.18 |
| PFNGDCRITKDNRRHCQACRLKRC [VDR] | 3.19 ± 0.3 | 3.4 ± 0.34 |
